Laboratory results taken from patent US20240301442A1 (Regeneron, published 2024).
Values joined by “and” are separate entries in the source; they are usually repeats but may differ in a detail not shown here. Equal entries are not always repeated.

Columns and labels:
[1] = molecular target: recombinant full-length P. aeruginosa PcrV (GenScript) (Pseudomonas aeruginosa)
[2] = molecular target: Zika virus envelope (Env) protein on MR766 virus (Zika virus MR766, UniProt Q32ZE1 291-790); experiment: cell-based or functional assay
[3] = molecular target: PcrV of P. aeruginosa strain 6077 (on live bacteria) (Pseudomonas aeruginosa strain 6077); experiment: cell-based or functional assay
Zika (prM80E)-mmh = molecular target: T1, Zika (prM80E)-mmh (Zika virus); experiment: ELISA, Zika (prM80E)-mmh coated, mouse serum, anti-human IgG HRP detection
T1 construct: domain: prM80E; also called Zika envelope protein; Lot #REGN4233-L4

B1: REGN4446 anti-Zika antibody expressed in mouse serum from episomal AAV2/8.CASI.REGN4446 HC T2A RORss LC (antibody, V domains shown)
VH: QVQLVESGGGVVQPGRSLRLSCAASGFTFNYYGMHWVRQAPGKGLEWVAVISYDGTNKYYADSVKGRFTTSRDNSKNTLYLQMNSLRAEDTALYYCARDRGGRFDYWGQGIQVTVSS
VL: EIVLTQSPDTLSLSPGERATLSCRASQSVSSNYLAWYQQKPGQAPRLLIYGASSRATGIPDRFSGSGSGTDFTLTISRLEPEDFAVYYCQRYGTSPLTFGGGTKVEIKR
notes: also called CASI HC T2A RORss LC; AAV2/8.CASI.REGN4446 HC T2A LC
B1 was tested, and the EC50 [1] was 204 nM, the “Neutralization EC50” value [2] was 0.469 nM and 0.605 nM and the “Neutralization IC50” value [3] was about 0.00889 nM. For the same binder, the EC50 (Zika (prM80E)-mmh) was 0.296 nM and 0.521 nM.
